{"source": "the supplement of paper PMC9112550", "about": "“Optimization of the antimicrobial peptide Bac7 by deep mutational scanning” (BMC Biology, 2022);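 also: peptides expressed intracellularly from a pBAD plasmid library in pooled LB shake-flask culture, induced with 0.3% L-arabinose, DNA abundance read by NGS, three biological replicates, DESeq2 with apeglm shrinkage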"}
{"tested_on": "Escherichia coli TOP10", "test": "shrunken log2 fold change of peptide-encoding DNA abundance (4.5 h post-induction vs induction); higher = less antimicrobial activity (less host growth inhibition)", "conditions": "time post-induction: 4.5 h; library: site-saturation at positions 5, 18, 19, 20"}
{"sequence": "RRIRQRPPRLPRPRPRPQPIPRP", "shrunken log2 fold change": 0.136}
{"sequence": "RRIRWRPPRLPRPRPRPMKYPRP", "shrunken log2 fold change": -0.311}
{"sequence": "RRIRWRPPRLPRPRPRPKWIPRP", "shrunken log2 fold change": -0.0267}
{"sequence": "RRIRRRPPRLPRPRPRPTHYPRP", "shrunken log2 fold change": 1.2}
{"sequence": "RRIRDRPPRLPRPRPRPLTVPRP", "shrunken log2 fold change": -0.102}
{"sequence": "RRIRFRPPRLPRPRPRPEGKPRP", "shrunken log2 fold change": 0.143}
{"sequence": "RRIRTRPPRLPRPRPRPIRMPRP", "shrunken log2 fold change": -0.441}
{"sequence": "RRIRHRPPRLPRPRPRPHQMPRP", "shrunken log2 fold change": -0.0152}
{"sequence": "RRIRPRPPRLPRPRPRPKQTPRP", "shrunken log2 fold change": 0.327}
{"sequence": "RRIRMRPPRLPRPRPRPWFNPRP", "shrunken log2 fold change": -0.243}
{"sequence": "RRIRFRPPRLPRPRPRPYASPRP", "shrunken log2 fold change": -0.0651}
{"sequence": "RRIRYRPPRLPRPRPRPKNTPRP", "shrunken log2 fold change": -0.579}
{"sequence": "RRIRGRPPRLPRPRPRPWMGPRP", "shrunken log2 fold change": -0.0634}
{"sequence": "RRIRCRPPRLPRPRPRPQPRPRP", "shrunken log2 fold change": 0.745}
{"sequence": "RRIRYRPPRLPRPRPRPGALPRP", "shrunken log2 fold change": 0.137}
{"sequence": "RRIRNRPPRLPRPRPRPFDTPRP", "shrunken log2 fold change": 0.0291}
{"sequence": "RRIRNRPPRLPRPRPRPPFTPRP", "shrunken log2 fold change": 0.0907}
{"sequence": "RRIRQRPPRLPRPRPRPYPLPRP", "shrunken log2 fold change": -0.73}
{"sequence": "RRIRGRPPRLPRPRPRPFNDPRP", "shrunken log2 fold change": -0.753}
{"sequence": "RRIRKRPPRLPRPRPRPKWCPRP", "shrunken log2 fold change": 0.152}
{"sequence": "RRIRYRPPRLPRPRPRPKLLPRP", "shrunken log2 fold change": -0.296}
{"sequence": "RRIRPRPPRLPRPRPRPNHCPRP", "shrunken log2 fold change": -1.08}
{"sequence": "RRIRLRPPRLPRPRPRPLMFPRP", "shrunken log2 fold change": -0.215}
{"sequence": "RRIRNRPPRLPRPRPRPPVFPRP", "shrunken log2 fold change": 0.15}
{"sequence": "RRIRCRPPRLPRPRPRPYSLPRP", "shrunken log2 fold change": -0.258}
{"sequence": "RRIRNRPPRLPRPRPRPMREPRP", "shrunken log2 fold change": 0.13}
{"sequence": "RRIRARPPRLPRPRPRPMAQPRP", "shrunken log2 fold change": 0.23}
{"sequence": "RRIRQRPPRLPRPRPRPQHRPRP", "shrunken log2 fold change": -0.0379}
{"sequence": "RRIRRRPPRLPRPRPRPLESPRP", "shrunken log2 fold change": 0.0173}
{"sequence": "RRIRRRPPRLPRPRPRPNCQPRP", "shrunken log2 fold change": 0.0764}
{"sequence": "RRIRPRPPRLPRPRPRPGCYPRP", "shrunken log2 fold change": 0.189}
{"sequence": "RRIRTRPPRLPRPRPRPNQEPRP", "shrunken log2 fold change": 0.0313}
{"sequence": "RRIRRRPPRLPRPRPRPTHLPRP", "shrunken log2 fold change": 0.578}
{"sequence": "RRIRDRPPRLPRPRPRPHPRPRP", "shrunken log2 fold change": 0.081}
{"sequence": "RRIRWRPPRLPRPRPRPCTIPRP", "shrunken log2 fold change": -0.138}
{"sequence": "RRIRARPPRLPRPRPRPTGVPRP", "shrunken log2 fold change": 0.439}
{"sequence": "RRIRLRPPRLPRPRPRPRTPPRP", "shrunken log2 fold change": 0.376}
{"sequence": "RRIRSRPPRLPRPRPRPHRYPRP", "shrunken log2 fold change": -0.606}
{"sequence": "RRIRHRPPRLPRPRPRPYSMPRP", "shrunken log2 fold change": -0.878}
{"sequence": "RRIRRRPPRLPRPRPRPIDWPRP", "shrunken log2 fold change": 0.122}
{"sequence": "RRIRQRPPRLPRPRPRPFRRPRP", "shrunken log2 fold change": 0.0238}
{"sequence": "RRIRGRPPRLPRPRPRPTHKPRP", "shrunken log2 fold change": 0.854}
{"sequence": "RRIRARPPRLPRPRPRPYIKPRP", "shrunken log2 fold change": -1.17}
{"sequence": "RRIRTRPPRLPRPRPRPYCQPRP", "shrunken log2 fold change": -0.804}
{"sequence": "RRIRARPPRLPRPRPRPGVWPRP", "shrunken log2 fold change": 1.55}
{"sequence": "RRIRGRPPRLPRPRPRPCERPRP", "shrunken log2 fold change": 0.013}
{"sequence": "RRIRDRPPRLPRPRPRPQNTPRP", "shrunken log2 fold change": -0.605}
{"sequence": "RRIRTRPPRLPRPRPRPKWVPRP", "shrunken log2 fold change": 0.129}
{"sequence": "RRIRDRPPRLPRPRPRPRMPPRP", "shrunken log2 fold change": 0.156}
{"sequence": "RRIRQRPPRLPRPRPRPWLDPRP", "shrunken log2 fold change": 0.19}
{"sequence": "RRIRYRPPRLPRPRPRPEGAPRP", "shrunken log2 fold change": 0.295}
{"sequence": "RRIRNRPPRLPRPRPRPMNDPRP", "shrunken log2 fold change": 0.42}
{"sequence": "RRIRMRPPRLPRPRPRPSVQPRP", "shrunken log2 fold change": 0.296}
{"sequence": "RRIRSRPPRLPRPRPRPRGDPRP", "shrunken log2 fold change": 0.477}
{"sequence": "RRIRVRPPRLPRPRPRPLGHPRP", "shrunken log2 fold change": 0.0376}
{"sequence": "RRIRFRPPRLPRPRPRPNKTPRP", "shrunken log2 fold change": -0.172}
{"sequence": "RRIRYRPPRLPRPRPRPQLTPRP", "shrunken log2 fold change": -0.0894}
{"sequence": "RRIRQRPPRLPRPRPRPPYVPRP", "shrunken log2 fold change": 0.191}
{"sequence": "RRIRGRPPRLPRPRPRPNWVPRP", "shrunken log2 fold change": 0.325}
{"sequence": "RRIRIRPPRLPRPRPRPDSAPRP", "shrunken log2 fold change": -0.194}
{"sequence": "RRIRSRPPRLPRPRPRPVENPRP", "shrunken log2 fold change": 0.0506}
{"sequence": "RRIRHRPPRLPRPRPRPIKAPRP", "shrunken log2 fold change": -0.157}
{"sequence": "RRIRNRPPRLPRPRPRPFVKPRP", "shrunken log2 fold change": -0.669}
{"sequence": "RRIRSRPPRLPRPRPRPVVGPRP", "shrunken log2 fold change": 0.267}
{"sequence": "RRIRQRPPRLPRPRPRPWHSPRP", "shrunken log2 fold change": -0.00968}
{"sequence": "RRIRCRPPRLPRPRPRPNGCPRP", "shrunken log2 fold change": -0.0116}
{"sequence": "RRIRDRPPRLPRPRPRPAVYPRP", "shrunken log2 fold change": -0.097}
{"sequence": "RRIRNRPPRLPRPRPRPPDDPRP", "shrunken log2 fold change": 0.123}
{"sequence": "RRIRQRPPRLPRPRPRPDGLPRP", "shrunken log2 fold change": -0.0465}
{"sequence": "RRIRKRPPRLPRPRPRPVKNPRP", "shrunken log2 fold change": 0.00783}
{"sequence": "RRIRGRPPRLPRPRPRPCLVPRP", "shrunken log2 fold change": 0.761}
{"sequence": "RRIRQRPPRLPRPRPRPQFWPRP", "shrunken log2 fold change": 0.681}
{"sequence": "RRIRSRPPRLPRPRPRPMPSPRP", "shrunken log2 fold change": -0.194}
{"sequence": "RRIRDRPPRLPRPRPRPEMKPRP", "shrunken log2 fold change": 0.0494}
{"sequence": "RRIRMRPPRLPRPRPRPWARPRP", "shrunken log2 fold change": 0.306}
